In data set [1] the test system is AAVS1 ZFN left (synthetic). The data set can be described thus: cell_activity. The note with it: pair with right ZFN; A549 clones positive for HindIII site (308 of 933); none with oligo alone.
The subject of data set [2] is AAVS1 ZFN right (synthetic). The data set can be described thus: cell_activity. The conditions noted are these: pair with left ZFN; A549 clones positive for HindIII site (308 of 933); none with oligo alone.

In data set [1], “ACCCCACAGTGG (double strand) [AAVS1 left ZFN binding site]” yielded an activity of 33%.
Sequence “TAGGGACAGGAT (double strand) [AAVS1 right ZFN binding site]” registered an activity in data set [2] of 33%.

(Values after US20130137180.)
